{
  "source": "patent US7645449B2",
  "about": "“Sensitizing cells for apoptosis by selectively blocking cytokines” (priority 2003, dated 2010)",
  "format_in_all_cases": "cell-based, human",
  "key": {"[1]": {"tested_on": "LNCaP prostate cancer cells", "test": "MTS viability of LNCaP cells: chemotherapy- and anti-CD95-induced apoptosis", "experimental": "(§1) Human LNCAP prostate cancer cell line and human MDA-MB-231 breast cancer cell line were obtained from the American Type Culture Collection (ATCC, Manassas, Va.). Human RT112 bladder carcinoma cell line was kindly provided by Dr. M. Cippitelli (Regina Elena Cancer Institute, Rome, Italy). Cells were grown in RPMI 1640 (Life Technologies Inc., Grand Island, N.Y.) containing 10% heat inactivated fetal bovine serum supplemented with L-Glutamine 2 mM and 100 units/ml Penicillin-Streptomycin. Cells were kept in 5% CO2 atmosphere and routinely passaged when 80-85% confluent. […]\n(§2) Cell viability was determined using the CellTiter 96® AQueous One Solution Cell Proliferation Assay (Promega, Madison, Wis.), according to the manufacturer's instructions. The assay is based on reduction of 3-(4,5-dimethylthiazol-2-yl)-5-(3-carboxymethoxyphenyl)-2-(4-sulfophenyl)-2H-tetrazolium, inner salt (MTS) to a colored formazan product that is measured spectrophotometrically. […] After 3 hours of incubation at 37° C. with the MTS reagent, the plates were read on a Multilabel Counter (Victor2, Wallac, Perkin-Ehmer Inc., Norwalk, Conn.) and dye absorbance was measured at 490 nm.\n(§3) The percentage of apoptotic cells was derived from the percentage of viable cells that was directly calculated from the values of the MTS assay."}, "[2]": {"tested_on": "MDA-MB-231 breast cancer cells", "test": "MTS viability of MDA-MB-231 cells: chemotherapy- and anti-CD95-induced apoptosis", "experimental": "as §1, §2, §3"}, "[3]": {"tested_on": "Bcl-XL and cFlip/FLAME-1 in LNCap prostate cancer cells", "test": "Immunoblot of Bcl-XL and cFlip/FLAME-1 in LNCaP cells", "conditions": "following IL-4 treatment", "experimental": "The observation that prostate and breast tumor cells treated with IL-4 display a reduced sensitivity to death induced by CD95 and chemotherapeutic drugs led us to investigate whether this cytokine would influence the expression of apoptosis regulatory genes. […] Therefore, IL-4-mediated increased survival in bladder, prostate and breast cancer cells is associated with upregulation of anti-apoptotic proteins.\nCell pellets were washed twice with cold PBS and lysed on ice for 30 minutes with 1% NP40 lysis buffer (20 mM Tris-HCl pH 7.2, 200 mM NaCl, 1% NP40) in the presence of 1 mM phenylmethylsulphonyl fluoride (PMSF) and 2 μg/ml each of aprotinin, leupeptin and pepstatin. Cell debris was removed by centrifugation at 13,000 rpm for 10 minutes at 4° C. Lysate concentration was determined using the Bio-Rad protein assay (Bio-Rad Laboratories, Richmond, Calif.). Aliquots of cell extracts containing 30 μg of total protein were resolved on 10% or 12% SDS-PAGE and transferred to a Hybond-C extra nitrocellulose membrane (Amersham Pharmacia Biotech, Piscataway, N.J.). […]"}, "[4]": {"tested_on": "freshly isolated normal breast epithelial cells", "test": "Bcl-XL expression and chemotherapy-induced apoptosis in normal breast epithelial cells exposed to IL-4", "text": "To confirm that IL-4-induced upregulation of Bcl-XL is able to protect epithelial breast cells from apoptosis, freshly isolated normal breast epithelial cells were exposed to IL-4 and analyzed Bcl-XL expression and sensitivity to a panel of chemotherapeutic drugs commonly used to treat breast cancer. […] To confirm that in vivo exposure to IL-4 is responsible for high Bcl-XL expression and resistance to chemotherapy in breast cancer, Bcl-XL expression and sensitivity to apoptosis of primary breast carcinoma cells cultivated in the presence or absence of IL-4 was measured Freshly isolated breast cancer cells expressed high levels of Bcl-XL and were scarcely sensitive to chemotherapeutic drugs (FIGS. 14C and D). […] Thus, in vivo IL-4 production promotes the survival of breast cancer cells. […]\nCell pellets were washed twice with cold PBS and lysed on ice for 30 minutes with 1% NP40 lysis buffer (20 mM Tris-HCl pH 7.2, 200 mM NaCl, 1% NP40) in the presence of 1 mM phenylmethylsulphonyl fluoride (PMSF) and 2 μg/ml each of aprotinin, leupeptin and pepstatin. […] Lysate concentration was determined using the Bio-Rad protein assay (Bio-Rad Laboratories, Richmond, Calif.). […]"}, "[5]": {"conditions": "cytokine pretreatment, 30 ng/ml anti-CD95 agonistic antibody"}},
  "data": [
    {"molecule": "IL-4: human recombinant IL-4 (protein, UniProt P05112 25-153, looked up) Interleukin-4: HKCDITLQEIIKTLNSLTEQKTLCTELTVTDIFAASKNTTEKETFCRAATVLRQFYSHHEKDTRCLGATAQQFHRHKQLIRFLKRLDRNLWGLAGLNSCPVKEANQSTLENFLERLKTIMREKYSKCSS", "values": [
      {"measurement": "anti-CD95-induced apoptosis of LNCaP cells", "setting": "[1]; [5]", "value": "greatly reduced anti-CD95-induced apoptosis"},
      {"measurement": "drug-induced death of LNCaP cells", "setting": "[1]; two days cytokine pretreatment (20 ng/ml), 300 ng/ml cisplatin or 1 μM vincristine", "value": "significantly protected from drug-induced death"},
      {"measurement": "anti-CD95-induced apoptosis of MDA-MB-231 cells", "setting": "[2]; [5]", "value": "greatly reduced anti-CD95-induced apoptosis"},
      {"measurement": "drug-induced death of MDA-MB-231 cells", "setting": "[2]; two days cytokine pretreatment (20 ng/ml), 300 ng/ml cisplatin or 5 μM daunorubicin", "value": "significantly protected from drug-induced death"},
      {"measurement": "levels of Bcl-XL and cFlip/FLAME-1 in LNCap cells", "setting": "[3]", "value": "considerably upregulated"},
      {"measurement": "apoptosis of normal breast epithelial cells induced by cisplatin, doxorubicin and taxol", "setting": "[4]; IL-4 pretreatment", "value": "significantly protected"},
      {"measurement": "Bcl-XL expression in normal breast epithelial cells", "setting": "[4]; IL-4 treatment", "value": "considerably increased the expression of Bcl-XL"}
    ]}
  ]
}
